B1: Azoarcus group I ribozyme (parent)
chain: GUGCCUUGCGCCGGGAAACCACGCAAGGGAUGGUGUCAAAUUCGGCGAAACCUAAGCGCCCGCCCGGGCGUAUGGCAACGCCGAGCCAAGCUUCGGCGCCUGCGCCGAUGAAGGUGUAGAGACUAGACGGCACCCACCUAAGGCAAACGCUAUGGUGAAGGCAUAGUCCAGGGAGUGGCGAAAGUCACACAAACCGG

Variants of: B1
Test: reverse-splicing fitness (ratio to wild type); higher = more active; in vitro selection; Mg2+ level not given
Outline: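 An in vitro group I ribozyme library with randomized positions was T7-transcribed and gel-purified. In triplicate, 10 pmol RNA in EPPS pH 7.5 was reacted with 50 pmoles of a 30-nt RNA substrate for 1 h at 37 °C across several added MgCl2 levels (1–48 mM), then stopped with EDTA. Products were reverse transcribed from a substrate-complementary primer, PCR-amplified and sequenced (HiSeq 4000). Fitness is a variant's read proportion after selection over that before, normalised to wild type.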

Variant | reverse-splicing fitness
C82U A120G C150A C169A U176G | 0.00477
C82U A120G C150A C169A U176C | 0.0164
C82U A120G C150A C169A U176A | 0.0174
C82U A120G C150U C169A | 0.0144
C82U A120G C150U C169U | 0.0137
C82U A120G C150U C169G | 0.0167
C82U A120G C150U C169U U176C | 0.0185
C82U A120G C150U C169U U176G | 0.00509
C82U A120G C150U C169U U176A | 0.0237
C82U A120G A145U C150U C169G | 0.0171
C82U A120G A145U C150U C169A | 0.014
C82U A120G A145U C150U C169U | 0.0143
C82U A120G A145G C150G C169U U176C | 0.0118
C82U A120G A145G C150G C169U U176A | 0.0122
C82U A120G A145G C150G C169U U176G | 0.00698
C82U A120G C150A C169U U176C | 0.0174
C82U A120G C150A C169U U176G | 0.00606
C82U A120G C150A C169U U176A | 0.0211
C82U A120G C150G C169U | 0.00921
C82U A120G C150G C169A | 0.00923
C82U A120G C150G C169G | 0.0077
C82U A120G C150G C169G U176G | 0.00357
C82U A120G C150G C169G U176A | 0.00641
C82U A120G C150G C169G U176C | 0.0046

Variant | reverse-splicing fitness
C82U A120G A145G C150U C169A | 0.0162
C82U A120G A145G C150U C169G | 0.0218
C82U A120G A145G C150U C169U | 0.0183
C82U A120G A145G C150G | 0.00813
C82U A120G A145G C150U | 0.0208
C82U A120G A145U C169A | 0.017
C82U A120G A145U C169U | 0.0182
C82U A120G A145U C169G | 0.0232
C82U A120G A145U C150G C169U U176C | 0.0108
C82U A120G A145U C150G C169U U176G | 0.0036
C82U A120G A145U C150G C169U U176A | 0.0132
C82U A120G A145G C169G U176A | 0.0223
C82U A120G A145G C169G U176G | 0.00333
C82U A120G A145G C169G U176C | 0.0317
C82U A120G A145G C150U C169G U176C | 0.0207
C82U A120G A145G C150U C169G U176G | 0.00383
C82U A120G A145G C150U C169G U176A | 0.0132
C82U A120G A145G C150G C169U | 0.0101
C82U A120G A145G C150G C169A | 0.00944
C82U A120G A145G C150G C169G | 0.00862
C82U A120G A145G C150U U176G | 0.00573
C82U A120G A145G C150U U176C | 0.019
C82U A120G A145G C150U U176A | 0.00967
C82U A120G C169A U176G | 0.00354

Variant | reverse-splicing fitness
C82U A120G C169A U176A | 0.0194
C82U A120G C169A U176C | 0.0213
C82U A120G A145U C150U U176A | 0.0102
C82U A120G A145U C150U U176G | 0.00369
C82U A120G A145U C150U U176C | 0.0143
C82U A120G C150U U176A | 0.0106
C82U A120G C150U U176C | 0.0148
C82U A120G C150U U176G | 0.00504
C82U A120G A145G C150A U176G | 0.00584
C82U A120G A145G C150A U176C | 0.0182
C82U A120G A145G C150A U176A | 0.0092
C82U A120G A145U C150U C169U U176G | 0.00327
C82U A120G A145U C150U C169U U176C | 0.0154
C82U A120G A145U C150U C169U U176A | 0.022
C82U A120G A145U C169U U176C | 0.0159
C82U A120G A145U C169U U176G | 0.00326
C82U A120G A145U C169U U176A | 0.0216
C82U A120G A145U C150A | 0.00772
C82U A120G A145U C150U | 0.0176
C82U A120G A145U C150G | 0.00697
C82U A120G A145U | 0.0237
C82U A120G C150A U176A | 0.0116
C82U A120G C150A U176G | 0.00583
C82U A120G C150A U176C | 0.0166

Variant | reverse-splicing fitness
C82U A120G A145U C150G C169G | 0.00815
C82U A120G A145U C150G C169A | 0.00915
C82U A120G A145U C150G C169U | 0.00878
C82U A120G C150U C169A U176C | 0.014
C82U A120G C150U C169A U176A | 0.016
C82U A120G C150U C169A U176G | 0.00423
C82U A120G A145G C169U U176A | 0.0237
C82U A120G A145G C169U U176C | 0.0187
C82U A120G A145G C169U U176G | 0.00378
C82U A120G A145U U176G | 0.00403
C82U A120G A145U U176A | 0.0127
C82U A120G A145U U176C | 0.0139
C82U A120G C150U | 0.0161
C82U A120G C150A | 0.00924
C82U A120G C150G | 0.00711
C82U A120G A145U C150U C169A U176C | 0.0085
C82U A120G A145U C150U C169A U176G | 0.00326
C82U A120G A145U C150U C169A U176A | 0.0106
C82U A120G C150G C169U U176C | 0.0118
C82U A120G C150G C169U U176G | 0.00521
C82U A120G C150G C169U U176A | 0.0125
C82U A120G A145U C150A C169A | 0.00815
C82U A120G A145U C150A C169U | 0.0072
C82U A120G A145U C150A C169G | 0.0077

Variant | reverse-splicing fitness
C82U A120G A145U C169G U176A | 0.0111
C82U A120G A145U C169G U176C | 0.0138
C82U A120G A145U C169G U176G | 0.00314
C82U A120G A145U C169A U176G | 0.00294
C82U A120G A145U C169A U176C | 0.0105
C82U A120G A145U C169A U176A | 0.00994
C82U A120G A145U C150G U176C | 0.00808
C82U A120G A145U C150G U176G | 0.00275
C82U A120G A145U C150G U176A | 0.00575
C82U A120G C150G U176A | 0.00577
C82U A120G C150G U176G | 0.00278
C82U A120G C150G U176C | 0.00821
C82U A120G A145G C150A C169U U176G | 0.0051
C82U A120G A145G C150U C169U U176C | 0.0164
C82U A120G A145G C150U C169U U176G | 0.00441
C82U A120G A145G C150U C169U U176A | 0.0207
C82U A120G C169A | 0.0184
C82U A120G A145G C169U | 0.0197
C82U A120G A145G C169G | 0.0254
C82U A120G A145G C169A | 0.018
C82U A120G A145U C150A U176C | 0.0109
C82U A120G A145U C150A U176A | 0.00948
C82U A120G A145U C150A U176G | 0.00337
C82U A120G C150A C169U | 0.00872

Variant | reverse-splicing fitness
C82U A120G C150A C169A | 0.0118
C82U A120G C150A C169G | 0.0102
C82U A120G A145G C150U C169A U176A | 0.0153
C82U A120G A145G C150U C169A U176C | 0.0154
C82U A120G A145G C150U C169A U176G | 0.00486
C82U A120G A145U C150G C169A U176G | 0.00411
C82U A120G A145U C150G C169A U176C | 0.00949
C82U A120G A145U C150G C169A U176A | 0.00927
C82U A120G A145U C150A C169A U176G | 0.00335
C82U A120G A145U C150A C169A U176C | 0.00898
C82U A120G A145U C150A C169A U176A | 0.0112
C82U A120G A145U C150G C169G U176G | 0.00361
C82U A120G A145U C150G C169G U176A | 0.00669
C82U A120G A145U C150G C169G U176C | 0.00534
C82U A120G C150A C169G U176C | 0.0214
C82U A120G C150A C169G U176A | 0.018
C82U A120G C150A C169G U176G | 0.00456
C82U A120G C150U C169G U176G | 0.00429
C82U A120G C150U C169G U176C | 0.0189
C82U A120G C150U C169G U176A | 0.015
C82U A120G A145U C150U C169G U176C | 0.0139
C82U A120G A145U C150U C169G U176G | 0.00343
C82U A120G A145U C150U C169G U176A | 0.0116
C82U A120G A145G C169A U176A | 0.0221

Variant | reverse-splicing fitness
C82U A120G A145G C169A U176C | 0.0335
C82U A120G A145G C169A U176G | 0.00333
C82U A120G A145U C150A C169U U176A | 0.022
C82U A120G A145U C150A C169U U176G | 0.00395
C82U A120G A145U C150A C169U U176C | 0.014
C82U A120G A145U C150A C169G U176A | 0.0114
C82U A120G A145U C150A C169G U176G | 0.0037
C82U A120G A145U C150A C169G U176C | 0.0133
C82U A120G A145G C150G C169G U176G | 0.00523
C82U A120G A145G C150G C169G U176C | 0.0112
C82U A120G A145G C150G C169G U176A | 0.0089
C82U A120G A145G C150G U176G | 0.00539
C82U A120G A145G C150G U176C | 0.00995
C82U A120G A145G C150G U176A | 0.00607
C82U A120G A145G C150G C169A U176A | 0.0129
C82U A120G A145G C150G C169A U176C | 0.0121
C82U A120G A145G C150G C169A U176G | 0.00685
C82U A120G C150G C169A U176G | 0.00547
C82U A120G C150G C169A U176C | 0.00979
C82U A120G C150G C169A U176A | 0.00927
C82U A120G A145G U176G | 0.00485
C82U A120G A145G U176C | 0.019
C82U A120G A145G U176A | 0.0128

— the RNAGym collection of RNA variant scans (doi:10.1093/molbev/msab373)
